Test [1] deals with VAMPtide (o-Abz/Dnp) (List Biological Laboratories, Inc.). The test is described as follows: cell-based or functional assay.
Test [2] concerns the target PL150 (Pharmaleads): [(Ac-60-94)VAMP](Pya74,Nop77). The test is described as follows: cell-based or functional assay.
Test [3] concerns the target GST-Synaptotagmin II (SytII) fusion protein (rat).

On to “BoNT/B complex from C. botulinum strain Okra B (Metabiologics Inc.) (from UniProt B1INP5 2-1291)”, for which, in test [1], the limit of detection of the toxin by VAMPtide cleavage was 5 nM.
In test [1], “purified 150 kDa BoNT/B from C. botulinum strain Okra B (Metabiologics Inc.)” had a limit of detection of the toxin by VAMPtide cleavage of 2 nM and a lowest toxin concentration detected by substrate cleavage (fluorescence) of 2 nM. The same substance came in with a lowest toxin concentration detected by substrate cleavage (fluorescence) in test [2] of 10 pM. The same substance returned an increase of binding at pH 5.2 against pH 7.2 in test [3] of 100%.

For the origin of these results see US20140287433A1.
